Source: patent US20220348652A1 (ANTAIMMU BIOMED, published 2022)

Target: T1, human CD47 expressed on CHO-CD47 cells (human, UniProt Q08722 19-323)
T1 construct: whole, on cells; also called cellular CD47; full-length CD47
Test: flow cytometry, IgG on CHO-CD47 cells
Procedure: The anti-CD47 scFvs were respectively expressed in their IgG formats in accordance with the procedure described in Materials and Methods. CHO cells expressing CD47 (CHO-CD47 cells) and wild-type CHO cells (CHO-WT cells) were respectively treated with anti-CD47 IgGs. After washing, the binding of the anti-CD47 IgGs was detected using a polyclonal APC-conjugated anti-human IgG antibody. Relative MFI was measured by flow cytometry. Antibody R23, a reference antibody constructed according to the sequences of ADI29341 disclosed in US20200181259A1, served as a positive control in this study.

EC50	Binder
2.05 µg/mL	CD47-26 IgG (antibody, V domains shown, IgG made in CHO cells; constant domains as for m19; also called antibody CD47-26) VH: EVQLVESGGGLVQPGGSLRLSCAASGFTITNFYIHWVRQAPGKGLEWVAKITPYNGDTHYADSVKGRFTISADTSKNTAYLQMNSLRAEDTAVYYCTRGGYAMDYWGQGTLVTVSS VL: DIQMTQSPSSLSASVGDRVTITCRASQDVSNYVAWYQQKPGKAPKLLIYGTSRLYPGVPSRFSGSGSGTDFTLTISSLQPEDFATYYCQQHSSYPLTFGQGTKVEIKR
2.67 µg/mL	CD47-30 IgG (antibody, V domains shown, IgG made in CHO cells; constant domains as for m19; also called antibody CD47-30) VH: EVQLVESGGGLVQPGGSLRLSCAASGFTINNWWIHWVRQAPGKGLEWVAWIDPFNGDSDYADSVKGRFTISADTSKNTAYLQMNSLRAEDTAVYYCARGGFALDHWGQGTLVTVSS VL: DIQMTQSPSSLSASVGDRVTITCRASQDVSHYVAWYQQKPGKAPKLLIYSTSRLYPGVPSRFSGSGSGTDFTLTISSLQPEDFATYYCQQHSSYPITFGQGTKVEIKR
